This is an account of results in PMC7813410, “Intraperitoneal insulin administration in pigs: effect on circulating insulin and glucose levels” (BMJ Open Diabetes Research & Care, 2021).

Like-named read-outs stand apart in the source and are kept apart here. Bounds are passed on as bounds.

The text on data set [1]:
Between January 2017 and August 2018, eight juvenile, non-diabetic, cross-bred pigs (50% Landswine, 50% Yorkshire) approximately 3 months of age (one male (36.2 kg) and seven females (39.5±2.7 kg)) were brought from the same local farmer approximately 1 week before the trials and acclimatized to the staff and new environment. Whenever possible, the pigs were kept in groups in a common stall (11.2 m^2) with concrete floor covered with woodchips. In every stall, a heating lamp was provided. In the facility, a day-night photoperiod (night: 21:00–05:00, dawn: 05:00–07:00, day: 07:00–19:00, dusk: 19:00–21:00) was maintained at 22°C and a relative humidity of 45%±5%. The pigs were fed standard food (Format Vekst 100, Felleskjøpet, Norway) and fresh water was available ad libitum. Food was removed 17 hours before the start of the trial while water was available until anesthesia was initiated.
In the main trial, the first pig was used to obtain information about optimal infusion rate of glucose to maintain stable glucose levels throughout the trial days. The second pig was used to confirm the chosen infusion rate. The remaining six pigs were used to study the pharmacokinetics and pharmacodynamics of intraperitoneally delivered insulin boluses. However, all pigs received boluses of 2, 5 and 10 U of insulin (1 U/s) in the upper right quadrant of the intraperitoneal cavity. The order of insulin boluses for the first two pigs was 2, 5 and 10 U. The order of boluses for the last six pigs was randomized.[6] There were at least 2 hours and 30 min between each bolus.
At the start of every trial day, a fresh insulin analog (100 U/mL, NovoRapid, Novo Nordisk, Denmark) was inserted in an insulin pump (Animas Vibe).
(§1) In the main trial, all pigs (n=7) received three insulin boluses (2, 5 and 10 U) in the upper right intraperitoneal space. In the additional trial, insulin boluses were injected into the subcutaneous tissues in the left side of the neck. Two pigs received 10 U boluses and one pig received a 5 U bolus.
(§2) In both trials, blood samples for insulin analysis were stored on ice for at least 10 min before centrifugation (10 min at 2.000× rpm in a refrigerated centrifuge). Plasma was collected from the samples immediately after centrifugation and transferred into empty Eppendorf Tubes and temporarily stored at −20°C. At the end of each trial day, plasma samples were stored at −80°C.
(§3) Plasma insulin was analyzed as singles by Iso-Insulin ELISA kit (10-1128-01, Mercodia, Uppsala, Sweden). Suppression of endogenous insulin secretion was verified by analyses of Porcine Insulin ELISA (10-1200-01, Mercodia) according to the manufacturer’s protocol. The results were converted from mU/L to pmol/L by a conversion factor 6, as recommended by the manufacturer. The lowest detectable insulin concentration for the Iso-Insulin ELISA kit was <3.0 mU/L (18 pmol/L) and for Porcine Insulin ELISA was <2.3 mU/L (13.8 pmol/L).
Delta values collected from the main trial with different insulin boluses (2, 5 and 10 U) in the pigs were analyzed. In order to estimate possible significant differences in circulating insulin and blood glucose levels after IP insulin boluses, a two-way repeated measures analysis of variance was performed. Treatment and time were the sources of variation. Tukey’s multiple comparisons test was used for distinguishing comparisons between different insulin boluses. All non-measurable insulin values were set at 18 pmol/L. All treatments are compared as models; therefore, comparison between unequal groups is allowed. Statistics were performed with GraphPad Prism V.8 Statistics. All values are given as mean±SD, unless stated otherwise. Differences between the groups were considered significant if p≤0.05.

Source text in data set [2]: We also performed an additional trial to investigate subcutaneous insulin dynamics and effect on blood glucose levels, performed under similar conditions. For more details, see online supplemental material section 'Additional trial'. In short, between May 2019 and January 2020, three juvenile, non-diabetic, cross-bred male pigs (50% Landswine, 50% Yorkshire) approximately 3 months of age weighing 39.5±4.3 kg were brought from the same local farmer and kept in the conditions as in the main trial.
In the additional trial, two pigs received 10 U subcutaneous insulin boluses and one pig received a 5 U subcutaneous insulin bolus. All subcutaneous insulin boluses were performed as the first bolus of the day.
Additionally, all pigs received an intraperitoneal glucagon bolus (150 µg) 40 min after the insulin bolus.
as §1, §2, §3
This is another data set of the same source.

The conditions of data set [3]: in vitro model; cited from earlier work. From the text: The liver is the major organ involved in glucose homeostasis.
The subject of data set [4] is pigs. Put plainly: Blood glucose after intraperitoneal insulin boluses in anesthetized pigs. The data set is classed as in vivo, pig. To be noted: mean±SE. Here is the method: In every stall, a heating lamp was provided.
(§4) The somatostatin analogs were injected 1 hour before the first insulin bolus of the day. 0.4 mg octreotide was injected intravenously and 0.3 mg pasireotide was injected subcutaneously. The octreotide injections were repeated hourly and the pasireotide injections were repeated every 3 hours during the trial.
To prevent hypoglycemia, a continuous venous glucose infusion was provided through the left internal jugular vein and was continued for the duration of the experiment. The blood glucose levels were kept in the range of 4.5–5.5 mmol/L before each insulin bolus was given.
In the first pig, we tested different glucose infusion rates to identify a suitable rate. In the remaining seven pigs, a constant glucose infusion rate of 8 g/hour was used throughout the experiments.
For both trials, arterial blood samples for glucose analysis were collected in heparinized syringes (LEO Pharma). Samples were analyzed on a Radiometer ABL 725 blood gas analyzer (Radiometer Medical, Brønshøj, Denmark). All blood samples were placed on ice immediately after extraction from the pigs. Most samples were analyzed consecutively, but some samples were stored on ice for a maximum of 20 min before analysis.
In the main trial, samples were collected 10, 5 and 1 min prior to the first somatostatin analog injection, every 10 min for the first hour after Sandostatin injection, every minute for the first 10 min after the insulin bolus, and every fifth minute thereafter for the next 110 min.
From the main trial, data from the last seven pigs were used for statistical analysis. We assumed the glucose levels at −5 min to be the baseline glucose levels at the start before each bolus (online supplemental figure S1).
Treatment and time were the sources of variation. […] Statistics were performed with GraphPad Prism V.8 Statistics.

Data set [5] deals with endogenous insulin secretion. Put plainly: Suppression of endogenous insulin secretion by somatostatin analogs (Porcine Insulin ELISA). The data set is classed as in vivo, pig. The settings on record: octreotide 0.4 mg IV hourly together with pasireotide 0.3 mg SC every 3 hours, pigs, no detectable levels. Here is the method:
To suppress the endogenous insulin and glucagon secretion, all pigs received the somatostatin analogs octreotide (Sandostatin 200 µg/mL, Novartis Europharm, UK) and pasireotide (Signifor 0.3 mg/mL, Novartis Europharm).
as §4

The mark [6] stands for this setting: 5 U subcutaneous bolus, n=1 pig.
Where [7] appears, read: 10 U subcutaneous boluses, n=2 pigs.

On to “insulin: fresh insulin analog (100 U/mL, NovoRapid, Novo Nordisk, Denmark) delivered by insulin pump”, for which the “effect on mean circulating insulin level” value in data set [1] (2 U IP bolus, n=7 pigs) is “did not increase”. Further, in data set [1] (5 U IP bolus, n=7 pigs), the “effect on mean circulating insulin level” value was “did not increase”. In addition, the “mean circulating insulin levels after 5 U compared with 2 U intraperitoneal insulin boluses” value in data set [1] (5 U vs 2 U IP bolus, n=7 pigs, p=0.89) is on record as “not different”. Further, in data set [1] (10 U IP bolus, n=7 pigs), the “time after which mean circulating insulin level was close to baseline” value stood at 80 min and the “time after which mean insulin level started to increase” value amounted to 10 min. Moreover, the “increase of mean circulating insulin level after 10 U compared with 2 U intraperitoneal insulin boluses” value in data set [1] (10 U vs 2 U IP bolus, n=7 pigs, plasma, Iso-Insulin ELISA, mean±SE, 95% CI 1.99 to 5.37, p<0.0001) amounted to 7.89 ± 1.07 pmol/L. The “increase of mean circulating insulin level after 10 U compared with 5 U intraperitoneal insulin boluses” value in data set [1] (10 U vs 5 U IP bolus, n=7 pigs, plasma, Iso-Insulin ELISA, mean±SE, 95% CI 5.86 to 10.89, p<0.0001) was 8.37 ± 1.07 pmol/L. Also, in data set [1] (after the smaller (2 and 5 U) IP insulin boluses, inferred from circulating insulin levels in pigs), the “first-pass effect in the liver” value is reported as about 100%. For the same substance, in data set [2] (setting [6]), the “time after bolus at which insulin level was increased” value is on record as 5 min and the “time at which insulin levels were still elevated” value is listed as 140 min. Also, in data set [2] (setting [7]), the “time after boluses at which mean insulin level was increased” value turned out to be 5 min and the “time at which insulin levels were still elevated” value amounted to 140 min. In data set [2] (subcutaneous (5 U n=1, 10 U n=2) vs IP boluses (n=7), p value not calculated), the “mean circulating insulin level after subcutaneous compared with intraperitoneal insulin boluses” value is reported as “increased more”. For the same substance, the hepatic first-pass effect entry in data set [3] is on record as “up to 80%”. Besides, in data set [4] (5 U vs 2 U IP bolus, anesthetized non-diabetic pigs, n=7, 120 min after bolus, glucose infusion 8 g/hour, 95% CI 0.31 to 0.65, p<0.0001), the “decrease of estimated mean blood glucose level after 5 U compared with 2 U intraperitoneal insulin boluses” value was 0.48 ± 0.07 mmol/L. Besides, the “decrease of estimated mean blood glucose level after 10 U compared with 2 U intraperitoneal insulin boluses” value in data set [4] (10 U vs 2 U IP bolus, anesthetized non-diabetic pigs, n=7, 120 min after bolus, glucose infusion 8 g/hour, 95% CI 0.44 to 0.79, p<0.0001) was 0.61 ± 0.07 mmol/L. Further, in data set [4] (10 U vs 5 U IP bolus, n=7 pigs, 95% CI −0.04 to 0.30, p=0.184, not different), the “change of mean blood glucose level after 10 U compared with 5 U intraperitoneal insulin boluses” value turned out to be 0.13 ± 0.07 mmol/L.

On to octreotide, for which the “endogenous insulin levels during the experiments” value in data set [5] is under 13.8 pmol/L.

As for pasireotide, in data set [5], the “endogenous insulin levels during the experiments” value is under 13.8 pmol/L.
